Experimental data as given in patent publication US20140087995A1 (published 2014).
One block for each binder: values may come before it. Numbered stars: 1 amine (or outer) side, 2 acyl side, 3 side chain; on linkers, the order of the positions; unused ones are H or OH. Bridge positions count the residues as written; N and C are the ends. Side chains are listed from the residue outwards. Ends that are not written are not given here. * marks the point of attachment. C20 diacid = O=C(O)CCCCCCCCCCCCCCCCCCC(=O)*; γGlu = O=C(O)[C@H](CCC(=O)[*:2])N[*:1]; AEEA = NCCOCCOCC(=O)O

Key:
[1] = molecular target: T1, human calcitonin receptor (human, UniProt P30988 25-474); assay: ratio IC50 hCTR / IC50 hAmylin-R of the two SPA competition assays; reference: human amylin receptor
T1 construct: whole, on cells; Assay used cell membranes of the transfected BHK cells; also called hCTR; hCT
T1 sequence (looked up): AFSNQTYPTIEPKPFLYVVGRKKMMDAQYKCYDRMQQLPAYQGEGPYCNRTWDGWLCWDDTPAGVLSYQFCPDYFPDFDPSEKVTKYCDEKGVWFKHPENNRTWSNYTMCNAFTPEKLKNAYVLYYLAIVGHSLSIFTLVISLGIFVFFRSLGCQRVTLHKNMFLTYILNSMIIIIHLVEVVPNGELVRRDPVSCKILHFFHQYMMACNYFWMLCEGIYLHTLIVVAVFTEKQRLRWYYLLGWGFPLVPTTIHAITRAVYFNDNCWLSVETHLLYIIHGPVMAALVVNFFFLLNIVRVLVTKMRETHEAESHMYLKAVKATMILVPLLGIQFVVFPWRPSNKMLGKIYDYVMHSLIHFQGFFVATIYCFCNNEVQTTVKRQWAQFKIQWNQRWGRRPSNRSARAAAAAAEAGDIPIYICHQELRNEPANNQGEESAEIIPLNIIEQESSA
Summary of the method: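 Competition binding by SPA uses membrane preparations (35 ng/μL final) in pH 7.4 Hepes buffer with 1 mM CaCl2 and 5 mM MgCl₂. Incubation lasts 120 min at 25° C, and IC₅₀ comes from one-site fitting.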

[2] = molecular target: T1, human calcitonin receptor; assay: SPA radioligand competition (125I-calcitonin), membranes of BHK cells with human calcitonin receptor
Summary of the method: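 BHK hCTR membranes 35 ng/μL + SPA beads 0.05 mg/well; buffer 50 mM Hepes pH 7.4, 1 mM CaCl2, 5 mM MgCl₂, 0.1% OA, 0.02% Tween20. 120 min, 25° C., shaking. Scintillation count; IC50 by one-site binding competition.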

B1: N^ε-[(4S)-4-carboxy-4-(19-carboxynonadecanoylamino)butanoyl]Lys[Arg1,Arg17,Pro21,Pro27,His35]-h-amylin (peptide)
peptide: K([γGlu-C20 diacid])RCNTATCATQRLANFLRHSSPNFGAIPSSTNVGSHTY-NH2
modifications: disulfide 3-8; N-terminus assumed
SMILES: CC[C@H](C)[C@H](NC(=O)[C@H](C)NC(=O)CNC(=O)[C@H](Cc1ccccc1)NC(=O)[C@H](CC(N)=O)NC(=O)[C@@H]1CCCN1C(=O)[C@H](CO)NC(=O)[C@H](CO)NC(=O)[C@H](Cc1c[nH]cn1)NC(=O)[C@H](CCCNC(=N)N)NC(=O)[C@H](CC(C)C)NC(=O)[C@H](Cc1ccccc1)NC(=O)[C@H](CC(N)=O)NC(=O)[C@H](C)NC(=O)[C@H](CC(C)C)NC(=O)[C@H](CCCNC(=N)N)NC(=O)[C@H](CCC(N)=O)NC(=O)[C@@H](NC(=O)[C@H](C)NC(=O)[C@@H]1CSSC[C@H](NC(=O)[C@H](CCCNC(=N)N)NC(=O)[C@@H](N)CCCCNC(=O)CC[C@H](NC(=O)CCCCCCCCCCCCCCCCCCC(=O)O)C(=O)O)C(=O)N[C@@H](CC(N)=O)C(=O)N[C@@H]([C@@H](C)O)C(=O)N[C@@H](C)C(=O)N[C@@H]([C@@H](C)O)C(=O)N1)[C@@H](C)O)C(=O)N1CCC[C@H]1C(=O)N[C@@H](CO)C(=O)N[C@@H](CO)C(=O)N[C@H](C(=O)N[C@@H](CC(N)=O)C(=O)N[C@H](C(=O)NCC(=O)N[C@@H](CO)C(=O)N[C@@H](Cc1c[nH]cn1)C(=O)N[C@H](C(=O)N[C@@H](Cc1ccc(O)cc1)C(N)=O)[C@@H](C)O)C(C)C)[C@@H](C)O
notes: Synthetic analogue, extended by Lys at the N-terminus; also called compound 44
Ratio hCT/hAmylin binding [1]: 17.7
IC50 [2]: 4.87 nM

B3: N^-1-[(4S)-4-carboxy-4-(19-carboxynonadecanoylamino)butanoyl]-Gly[Arg1,Arg17,Pro21,Pro27]-h-amylin (peptide)
peptide: {C20 diacid-γGlu}-GRCNTATCATQRLANFLRHSSPNFGAIPSSTNVGSNTY-NH2
modifications: disulfide 3-8
SMILES: CC[C@H](C)[C@H](NC(=O)[C@H](C)NC(=O)CNC(=O)[C@H](Cc1ccccc1)NC(=O)[C@H](CC(N)=O)NC(=O)[C@@H]1CCCN1C(=O)[C@H](CO)NC(=O)[C@H](CO)NC(=O)[C@H](Cc1c[nH]cn1)NC(=O)[C@H](CCCNC(=N)N)NC(=O)[C@H](CC(C)C)NC(=O)[C@H](Cc1ccccc1)NC(=O)[C@H](CC(N)=O)NC(=O)[C@H](C)NC(=O)[C@H](CC(C)C)NC(=O)[C@H](CCCNC(=N)N)NC(=O)[C@H](CCC(N)=O)NC(=O)[C@@H](NC(=O)[C@H](C)NC(=O)[C@@H]1CSSC[C@H](NC(=O)[C@H](CCCNC(=N)N)NC(=O)CNC(=O)CC[C@H](NC(=O)CCCCCCCCCCCCCCCCCCC(=O)O)C(=O)O)C(=O)N[C@@H](CC(N)=O)C(=O)N[C@@H]([C@@H](C)O)C(=O)N[C@@H](C)C(=O)N[C@@H]([C@@H](C)O)C(=O)N1)[C@@H](C)O)C(=O)N1CCC[C@H]1C(=O)N[C@@H](CO)C(=O)N[C@@H](CO)C(=O)N[C@H](C(=O)N[C@@H](CC(N)=O)C(=O)N[C@H](C(=O)NCC(=O)N[C@@H](CO)C(=O)N[C@@H](CC(N)=O)C(=O)N[C@H](C(=O)N[C@@H](Cc1ccc(O)cc1)C(N)=O)[C@@H](C)O)C(C)C)[C@@H](C)O
notes: Synthetic analogue, extended by Gly at the N-terminus; also called compound 46
Ratio hCT/hAmylin binding [1]: 48.9
IC50 [2]: 9.53 nM

B4: N^ε1-[2-[2-[2-[[(4S)-4-carboxy-4-(19-carboxynonadecanoylamino)butanoyl]amino]ethoxy]ethoxy]acetyl]-[Arg17,Pro21,Pro27]-h-amylin (peptide)
peptide: K([AEEA-γGlu-C20 diacid])CNTATCATQRLANFLRHSSPNFGAIPSSTNVGSNTY-NH2
modifications: disulfide 2-7; N-terminus assumed
SMILES: CC[C@H](C)[C@H](NC(=O)[C@H](C)NC(=O)CNC(=O)[C@H](Cc1ccccc1)NC(=O)[C@H](CC(N)=O)NC(=O)[C@@H]1CCCN1C(=O)[C@H](CO)NC(=O)[C@H](CO)NC(=O)[C@H](Cc1c[nH]cn1)NC(=O)[C@H](CCCNC(=N)N)NC(=O)[C@H](CC(C)C)NC(=O)[C@H](Cc1ccccc1)NC(=O)[C@H](CC(N)=O)NC(=O)[C@H](C)NC(=O)[C@H](CC(C)C)NC(=O)[C@H](CCCNC(=N)N)NC(=O)[C@H](CCC(N)=O)NC(=O)[C@@H](NC(=O)[C@H](C)NC(=O)[C@@H]1CSSC[C@H](NC(=O)[C@@H](N)CCCCNC(=O)COCCOCCNC(=O)CC[C@H](NC(=O)CCCCCCCCCCCCCCCCCCC(=O)O)C(=O)O)C(=O)N[C@@H](CC(N)=O)C(=O)N[C@@H]([C@@H](C)O)C(=O)N[C@@H](C)C(=O)N[C@@H]([C@@H](C)O)C(=O)N1)[C@@H](C)O)C(=O)N1CCC[C@H]1C(=O)N[C@@H](CO)C(=O)N[C@@H](CO)C(=O)N[C@H](C(=O)N[C@@H](CC(N)=O)C(=O)N[C@H](C(=O)NCC(=O)N[C@@H](CO)C(=O)N[C@@H](CC(N)=O)C(=O)N[C@H](C(=O)N[C@@H](Cc1ccc(O)cc1)C(N)=O)[C@@H](C)O)C(C)C)[C@@H](C)O
notes: Synthetic analogue; also called compound 41
Ratio hCT/hAmylin binding [1]: 49.9
IC50 [2]: 21.3 nM

Continued by falling IC50 [2], values first:

Ratio hCT/hAmylin binding [1]: 44.9
IC50 [2]: 15.5 nM
B2: N^-1-[(4S)-4-carboxy-4-(19-carboxynonadecanoylamino)butanoyl]-Gly[Arg1,Arg17,Pro21,Pro27,His35]-h-amylin (peptide)
peptide: {C20 diacid-γGlu}-GRCNTATCATQRLANFLRHSSPNFGAIPSSTNVGSHTY-NH2
modifications: disulfide 3-8
SMILES: CC[C@H](C)[C@H](NC(=O)[C@H](C)NC(=O)CNC(=O)[C@H](Cc1ccccc1)NC(=O)[C@H](CC(N)=O)NC(=O)[C@@H]1CCCN1C(=O)[C@H](CO)NC(=O)[C@H](CO)NC(=O)[C@H](Cc1c[nH]cn1)NC(=O)[C@H](CCCNC(=N)N)NC(=O)[C@H](CC(C)C)NC(=O)[C@H](Cc1ccccc1)NC(=O)[C@H](CC(N)=O)NC(=O)[C@H](C)NC(=O)[C@H](CC(C)C)NC(=O)[C@H](CCCNC(=N)N)NC(=O)[C@H](CCC(N)=O)NC(=O)[C@@H](NC(=O)[C@H](C)NC(=O)[C@@H]1CSSC[C@H](NC(=O)[C@H](CCCNC(=N)N)NC(=O)CNC(=O)CC[C@H](NC(=O)CCCCCCCCCCCCCCCCCCC(=O)O)C(=O)O)C(=O)N[C@@H](CC(N)=O)C(=O)N[C@@H]([C@@H](C)O)C(=O)N[C@@H](C)C(=O)N[C@@H]([C@@H](C)O)C(=O)N1)[C@@H](C)O)C(=O)N1CCC[C@H]1C(=O)N[C@@H](CO)C(=O)N[C@@H](CO)C(=O)N[C@H](C(=O)N[C@@H](CC(N)=O)C(=O)N[C@H](C(=O)NCC(=O)N[C@@H](CO)C(=O)N[C@@H](Cc1c[nH]cn1)C(=O)N[C@H](C(=O)N[C@@H](Cc1ccc(O)cc1)C(N)=O)[C@@H](C)O)C(C)C)[C@@H](C)O
notes: Synthetic analogue, extended by Gly at the N-terminus; also called compound 47

Ratio hCT/hAmylin binding [1]: 34.7
IC50 [2]: 2.64 nM
B5: N^ε1-[2-[2-[2-(19-carboxynonadecanoylamino)ethoxy]ethoxy]acetyl]-[Arg17,Pro21,Pro27]-h-amylin (peptide)
peptide: K([AEEA-C20 diacid])CNTATCATQRLANFLRHSSPNFGAIPSSTNVGSNTY-NH2
modifications: disulfide 2-7; N-terminus assumed
SMILES: CC[C@H](C)[C@H](NC(=O)[C@H](C)NC(=O)CNC(=O)[C@H](Cc1ccccc1)NC(=O)[C@H](CC(N)=O)NC(=O)[C@@H]1CCCN1C(=O)[C@H](CO)NC(=O)[C@H](CO)NC(=O)[C@H](Cc1c[nH]cn1)NC(=O)[C@H](CCCNC(=N)N)NC(=O)[C@H](CC(C)C)NC(=O)[C@H](Cc1ccccc1)NC(=O)[C@H](CC(N)=O)NC(=O)[C@H](C)NC(=O)[C@H](CC(C)C)NC(=O)[C@H](CCCNC(=N)N)NC(=O)[C@H](CCC(N)=O)NC(=O)[C@@H](NC(=O)[C@H](C)NC(=O)[C@@H]1CSSC[C@H](NC(=O)[C@@H](N)CCCCNC(=O)COCCOCCNC(=O)CCCCCCCCCCCCCCCCCCC(=O)O)C(=O)N[C@@H](CC(N)=O)C(=O)N[C@@H]([C@@H](C)O)C(=O)N[C@@H](C)C(=O)N[C@@H]([C@@H](C)O)C(=O)N1)[C@@H](C)O)C(=O)N1CCC[C@H]1C(=O)N[C@@H](CO)C(=O)N[C@@H](CO)C(=O)N[C@H](C(=O)N[C@@H](CC(N)=O)C(=O)N[C@H](C(=O)NCC(=O)N[C@@H](CO)C(=O)N[C@@H](CC(N)=O)C(=O)N[C@H](C(=O)N[C@@H](Cc1ccc(O)cc1)C(N)=O)[C@@H](C)O)C(C)C)[C@@H](C)O
notes: Synthetic analogue; also called compound 43
